Consider two molecules from patent US20060067886A1, “Gastrin receptor-avid peptide conjugates” (priority 1997, published 2006).

The target of data set [1] is T1, GRP receptors on Swiss 3T3 cells (Mus musculus, UniProt P21729).
T1 construct: endogenous in cells; host or cells: Swiss 3T3 mouse fibroblasts (whole cells)
The data set is described as follows: Competitive cell binding vs 125I-Tyr4-BBN, Swiss 3T3 cells. As to the method: The binding affinities of the synthetic BBN derivatives were assessed for GRP receptors on Swiss 3T3 cells and, in some cases, on a variety of human cancer cell lines, that express GRP receptors. […] The cell binding assay methods used to measure the IC50's is standard and used techniques previously reported [Jensen et al., 1993; Cai et al., 1994; Cai et al., 1992]. The methods used for determining IC50's for all GRP receptor binding compounds on all cell lines was similar. The specific method used to measure IC50's on Swiss 3T3 cells is briefly described as follows:
(§1) Swiss 3T3 mouse fibroblasts are grown to confluence in 48 well microtiter plates. […] The growth media was removed, the cells were washed twice with incubation media, and incubation media was returned to the cells. ^125I-Tyr4-BBN (0.01 uCi) was added to each well in the presence of increasing concentrations of the appropriate competitive peptide. Typical concentrations of displacing peptide ranged from 10-12 to 10-5 moles of displacing ligand per well. The cells were incubated at 37° C. for forty minutes in a 95% […]/5% CO2 humidified environment. At forty minutes post initiation of the incubation, the medium was discarded, and the cells were washed twice with cold incubation media. The cells were harvested from the wells following incubation in a trypsin/EDTA solution for five minutes at 37° C. Subsequently, the radioactivity, per well, was determined and the maximum % total uptake of the radiolabeled peptide was determined and normalized to 100%.
The binding affinities of the synthetic BBN derivatives were assessed for GRP receptors on Swiss 3T3 cells, PC-3 cells and CF PAC-1 cells. The IC50's of each of derivative were determined relative to (i.e., in competition with) ^125I-Tyr^4-BBN. The cell binding assay methods used to measure the IC50's is standard and was used by techniques previously reported [Jensen et al., 1993; Cai et al., 1992; Cai et al., 1994]. The methods used for determining IC50's with all BBN analogue binding to GRP receptors present on all three cell lines were similar. The specific method used to measure IC50's on Swiss 3T3 cells, is briefly described as follows:
as §1, with “microliter” for “microtiter”, “^125I-Tyr^4-BBN” for “^125I-Tyr4-BBN”, “μCi)” for “uCi)”, “10^−12” for “10-12”, “10^−5” for “10-5”, “100%. A similar procedure was used in performing cell binding assays with both the PC-3 and CFa-PAC-1 human cancer cell lines.” for “100%.”

For data set [2], the system named is Swiss 3T3 cells. The data set is described as follows: Internalization and efflux, Swiss 3T3 cells. It counts as cell-based, mouse. The conditions noted are these: sixty minutes / one hour post-washing. The protocol:
After establishment of equilibrium after a forty minute incubation, the media surrounding the cells was removed and the cells were washed with fresh media containing no radioactivity. […] The cells were then incubated in a 0.2M acetic acid solution (pH 2.5) which caused the surface proteins (incl., GRP receptors) to denature and release all surface bound radioactive materials. After removing this buffer and washing, the cells were counted again.
To determine intracellular retention, a similar method was employed. […] FIG. 12 is a graph of results of efflux experiments using Swiss 3T3 cells with ^125I-Lys^3-BBN.

In data set [3] the test system is PC-3 human tumor xenografts. Description: Single dose radiotherapy in PC-3 tumor bearing SCID mice. It counts as in vivo. The conditions noted are these: up to 20 mCi/kg single dose. From the text:
In vivo pre-clinical evaluation of single dose radiotherapy in human tumor bearing SCID mice. […] The xenograft model was produced by bilateral flank inoculation of 5×10^6 PC-3 cells per site. […] Baseline weights, hematology profiles, and tumor measurements were obtained immediately prior to therapy administration. Four groups of animals were utilized; a saline placebo, a 5 mCi/kg single dose, a 10 mCi/kg single dose, and a 20 mCi/kg single dose. Tumor measurements and weights were obtained twice weekly throughout the 14 weeks post injection.

A short description of data set [4]: in vivo. The conditions noted are these: SCID, mouse, in vivo, iv, 4 uCi, total radioactivity, Avg % ID, Muscle. As to the method:
In vivo pharmacokinetic studies in human tumor bearing SCID mice. […] The xenograft models were produced by bilateral flank inoculation of 5×10^6 cells (PC-3 or MDA-MB-231 cells) per site. Four to six weeks post inoculation, palpable tumors were observed. At this point, the mice were injected with 4 μCi of the complex in […] of isotonic saline via the tail vein. The mice were euthanized and tissues and organs were excised from the animals at selected times post-injection (p.i.), including 15 minutes, 30 minutes, 1 hour, 4 hours, 24 hours, 48 hours, and 72 hours p.i. Subsequently, the tissues and organs were weighed and counted in a NaI well counter and the percent injected dose (% ID) and % ID/g of each organ or tissue calculated.
The mice were injected with 4 μCi of the complex in 100 μL of isotonic saline via the tail vein. The mice were euthanized by cervical dislocation. Tissues and organs were excised from the animals following at 1 hour, 4 hour, and 24 hours post-injection (p.i.). Subsequently, the tissues and organs were weighed and counted in a NaI well counter and the percent injected dose (% ID) and % ID/g of each organ or tissue calculated.

T1 sequence (P21729 whole entry): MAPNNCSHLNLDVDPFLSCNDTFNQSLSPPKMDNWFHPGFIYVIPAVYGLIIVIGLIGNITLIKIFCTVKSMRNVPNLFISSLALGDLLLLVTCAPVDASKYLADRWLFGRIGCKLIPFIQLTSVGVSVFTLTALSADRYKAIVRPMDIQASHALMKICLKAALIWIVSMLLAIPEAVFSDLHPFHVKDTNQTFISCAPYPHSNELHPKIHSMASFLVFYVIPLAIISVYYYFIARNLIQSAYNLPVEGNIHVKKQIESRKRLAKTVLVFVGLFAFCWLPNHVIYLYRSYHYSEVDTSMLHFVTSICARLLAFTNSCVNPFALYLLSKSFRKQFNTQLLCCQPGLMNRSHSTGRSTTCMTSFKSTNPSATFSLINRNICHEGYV

Take `CC(C)C[C@H](NC(=O)[C@H](Cc1c[nH]cn1)NC(=O)CNC(=O)[C@@H](NC(=O)[C@H](C)NC(=O)[C@H](Cc1c[nH]c2ccccc12)NC(=O)[C@H](CCC(N)=O)NC(=O)CCCCNC(=O)COC1CSCCCSCCCSCCCSC1)C(C)C)C(N)=O` [105Rh-BBN-61]: in data set [1], the 50% inhibitory concentration (IC50) came out at 4.1 nM. Also, the “activity remaining associated with the cells” value in data set [2] is reported as “less than 10%”.
For the molecule `CSCC[C@H](NC(=O)[C@H](CC(C)C)NC(=O)[C@H](Cc1cnc[nH]1)NC(=O)CNC(=O)[C@@H](NC(=O)[C@H](C)NC(=O)[C@H](Cc1c[nH]c2ccccc12)NC(=O)[C@H](CCC(N)=O)NC(=O)CCCCCCCNC(=O)CN1CCN(CC(=O)O)CCN(CC(=O)O)CCN(CC(=O)O)CC1)C(C)C)C(N)=O` [90Y-DOTA-8-Aoc-BBN[7-14]NH2, metal not drawn], in data set [3], the “tolerability of radiation doses” value is given as “well tolerated”. Further, the tissue uptake dose at 4 h in data set [4] (4 hrs) worked out at 0.01 ± 0.01 %ID. The tissue uptake dose at 48 h in data set [4] (48 hrs) was 0.01 ± 0.02 %ID. Besides, in data set [4] (72 hrs), the tissue uptake dose at 72 h is 0.01 ± 0.02 %ID.
